The target of this assay is recombinant human IGF2R extracellular domains 1–15, biotinylated CD4 (domains 3 and 4) fusion protein (human) (UniProt P11717). Description: SPR; BIAcore T200; 1800 RU biotinylated IGF2R fusion protein immobilised on a streptavidin-loaded CM5 chip; IGF2 256 to 0.125 nM injected for 200 s at 40 µL/min, 25°C, HBS-EP buffer; kinetic fit to a 1:1 binding model and steady state analysis.

The values below come from paper PMC3585325.

With recombinant human IGF2 (ligand), the Kd was 1 to 4 nM. As for recombinant mouse IGF2 (ligand), the figure is 3 to 6 nM.
